# Test system: MS2 coat protein
# Experiment: apparent KD of MS2 coat protein; designed switch direction (-1 OFF switch, 1 ON switch): -1; higher = weaker reporter binding
# How it was run: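 Designed RNA switches with common flanks were made on Illumina chips by stalled E. coli RNA polymerase. Titration with SNAP-549-labelled MS2 coat protein doubled from 0.7 or 1.5 nM up to 3 µM. Apparent KD is each design's median over clusters after curve-fitting normalised fluorescence.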
# [1] = input ligand: microRNA oligo, concentration not stated
# [2] = Eterna round: R95, input ligand: microRNA oligo, concentration not stated
# [3] = Eterna round: R95, input ligand: FMN 200 uM
# [4] = Eterna round: R95, input ligand: none
Sequence,apparent KD of MS2 coat protein [2],apparent KD of MS2 coat protein (input ligand: FMN 200 uM),apparent KD of MS2 coat protein (input ligand: none),also measured
"UUUAUAUAGUAAGGAUAUGUAUUAUUUUUUACAACAGAAGGUACUGACAUGAGGAUCACCCAUGUUUUAGUGUGGGCAUGUAGU [JMF's solution 100] (Eterna round: R96, puzzle: Exclusion NG 1)",,,,apparent KD of MS2 coat protein [1]: 217 nM
UUUCAACAUGAGGAUCACCCAUGUGAGGAUAUGAUGCAGCAGUGGUCUACGCUGUGCAUCAGAAGGCACAUGUG (puzzle: Exclusion 1),130 nM,,,
"UUUCAACGGUAGGAUAUCGAGACUACGACUAGCCGAGAAGGGCCGACAUGAGGAUCACCCAUGUGCCUCACCCG [Eternabot (L1) Solution 56] (Eterna round: R97, puzzle: Exclusion 6)",,22.9 nM,23.9 nM,
"UUUCGGCGGACCGUGGCUUUUUGCUCGUCUUAUGCUACGACAUGAGGAUCACCCAUGUGGUGGUGGUCCGUUGUUGU [Grok-var2-11 mod JAL] (puzzle: Sensor v3, turn-off variant 2)",10.4 nM,,,apparent KD of MS2 coat protein [3]: 59.7 nM; apparent KD of MS2 coat protein [4]: 39.7 nM
"UUUCGUGUGCGGGCUUUUUACAUGAGGAUCACCCAUGUCCUCUGCUUGUCUUGUCUUGGGCUUUUUUUGGGUUCGGG [-19.4, -42 kcal, A 8%] (Eterna round: R97, puzzle: Sensor, turn-off variant 1)",,560 nM,836 nM,
"UUUCUUAAGUGGUCGCUUCACAUGAGGAUCACCCAUGUCGCCUCUAUGGCAUUAAAUACGAGCUUUUUGCUUGAAUU [Eternabot (L1) Solution 14] (Eterna round: R97, puzzle: Sensor, turn-off variant 1)",,312 nM,385 nM,
"UUUGAGUUAGGAUAUGCCAAGUUGCACAUGAGGAUCACCCAUGUGAGGUGCCUUACUUAAGCAGAAGGAACAAUAA [EX5 C.13] (Eterna round: R97, puzzle: Exclusion 5)",,22.1 nM,19.8 nM,
"UUUGGUGUAGGAUAUACAUGAGGAUCACCCAUGUGCUCCUGCGAGUUCGAAUCCAAAGGUAGAAGGGCGCUAAU [Eternabot (L2) Solution 83] (Eterna round: R97, puzzle: Exclusion 3)",,23.3 nM,21.2 nM,
"UUUGUCUGUGUGAGGAUAUACUUGUUUGGGUUUUUGUAGAAGGCACAUGAGGAUCACCCAUGUAUUUUGUUGUG [JR_BME4_Sub017] (Eterna round: R96, puzzle: Brourd's mod of Exclusion 4)",,86.5 nM,55.9 nM,apparent KD of MS2 coat protein [1]: 47.7 nM
UUUGUCUGUGUGAGGAUAUACUUGUUUGGGUUUUUGUAGAAGGCACAUGAGGAUCACCCAUGUAUUUUGUUGUG [JR_BME4_Sub017] (puzzle: Brourd's mod of Exclusion 4),49.7 nM,,,
UUUGUGUCAGGAUAUGAGUAGUAGAACAAUAGUACUACUACUCAGAAGGGACAUGAGGAUCACCCAUGUUCCUC [Fiskers Ex 4 Super stable 44 mod 21] (puzzle: Exclusion 4),19 nM,,,
UUUGUUGUUGUGAGGAUAUCGUAGUUAUUUUGAAACGAGAAGGCACAUGAGGAUCACCCAUGUUUGUUGAUGGU [JR_BMOE4_Sub062] (puzzle: Brourd's mod of Exclusion 4),32.4 nM,,,
"UUUGUUUAUGUAGGAUAUGCCUGGCGUGCCUUUGCAGAAGGACAUGAGGAUCACCCAUGUAACAUGAGGCUCACCCAUGUCGCG [salish99_ExNG1_r04_112] (Eterna round: R96, puzzle: Exclusion NG 1)",,285 nM,277 nM,apparent KD of MS2 coat protein [1]: 152 nM
UUUUAACAUGAGGAUCACCCAUGUGAGGAUAUCGAAAUUUAUAUUAAUAUUAAUUAUUCGAGAAGGCACAUUUU [JMF 29] (puzzle: Exclusion 1),114 nM,,,
UUUUAACAUGAGGAUCACCCAUGUGAGGAUAUCGAAAUUUAUAUUAAUAUUAUUAAUACGAGAAGGCACAUUUU [JMF 38] (puzzle: Exclusion 1),36.2 nM,,,
UUUUAACAUGAGGAUCACCCAUGUGAGGAUAUCGAAAUUUAUAUUAAUAUUUAUAAUUCGAGAAGGCACAUUUU [JMF 53] (puzzle: Exclusion 1),155 nM,,,
UUUUAACAUGAGGAUCACCCAUGUGAGGAUAUCGAAAUUUAUAUUAAUAUUUAUAUAUCGAGAAGGCACAUUUU [JMF 56] (puzzle: Exclusion 1),117 nM,,,
UUUUAACAUGAGGAUCACCCAUGUGAGGAUAUCGAAAUUUAUAUUUAUAUUAAUUUAACGAGAAGGCACAUUUU [JMF 87] (puzzle: Exclusion 1),84.4 nM,,,
"UUUUAAUAUGAAGGAUAUACUUAACAUGAGGAUCACCCAUGUGGUGUUGUGAGUGAGUGAGUUUAGUAGAAGGUCAAUGAUUUU [JMF's solution 69] (Eterna round: R96, puzzle: Exclusion NG 2)",,638 nM,252 nM,apparent KD of MS2 coat protein [1]: 381 nM

Sequence,apparent KD of MS2 coat protein [2],apparent KD of MS2 coat protein (input ligand: FMN 200 uM),apparent KD of MS2 coat protein (input ligand: none),also measured
"UUUUACAGGCUUAGAUCCUACAUGAGGAUCACCCAUGUGGAGGCGUGUCGUGAGACAUGCCUCUAAGCUCGUCUUGU [JL TOV1 3.74] (Eterna round: R97, puzzle: Sensor, turn-off variant 1)",,86.2 nM,103 nM,
"UUUUACAGGCUUAGAUCCUACAUGAGGAUCACCCAUGUGGUCCGGUGACGUGAGUCACCGGACUAAGCUCGUCUUGU [JL TOV1 3.72] (Eterna round: R97, puzzle: Sensor, turn-off variant 1)",,156 nM,143 nM,
UUUUACAUAGGAUAUAGUUUCUUUUACAUGAGGAUCACCCAUGUCUCUCCUCUCUCUCUUCUAGAAGGAUGUUUCU [JR_E5_Sub012] (puzzle: Exclusion 5),86.1 nM,,,
UUUUACAUAGGAUAUAGUUUGUUGUACAUGAGGAUCACCCAUGUUGUUGGUUGUGCUGUUCUAGAAGGAUGUUUCU [JR_E5_Sub014] (puzzle: Exclusion 5),37.3 nM,,,
"UUUUACAUGCUGAGAUCCUACAUGAGGAUCACCCAUGUGGUCCGGUGACGUGAGUCACCGGACUUAGCUCGUCUUGU [salish99_S_TOV1_R5_099] (Eterna round: R97, puzzle: Sensor, turn-off variant 1)",,186 nM,304 nM,
"UUUUACUUAGGAUAUACAUUUUUUUAUUUAUUUAUAAUAUUACAUGAGGAUCACCCAUGUAGAAGGGAGAUUUU [My Design] (Eterna round: R96, puzzle: Exclusion 2)",,76.9 nM,72.3 nM,apparent KD of MS2 coat protein [1]: 64.3 nM
UUUUACUUAGGAUAUACAUUUUUUUAUUUAUUUAUAAUAUUACAUGAGGAUCACCCAUGUAGAAGGGAGAUUUU [My Design] (puzzle: Exclusion 2),78.1 nM,,,
UUUUAGAGAGGAUAUAUAAAGUGAAACAUGAGGAUCACCCAUGUAAUUUUAUGGAUGUAAAUAGAAGGCUCAUUUA [JL-ex5-3.01] (puzzle: Exclusion 5),34.3 nM,,,
"UUUUAGCAAGCGAGUAUUAACAUGAGGAUCACCCAUGUGCAUCCAGUAUUACUUUUAGAUCUUGCUCGUCUUAUAUA [JR_STOV1_v2_Sub083] (Eterna round: R97, puzzle: Sensor, turn-off variant 1)",,339 nM,381 nM,
"UUUUAGGCAGGAUAUACAUGAGGAUCACCCAUGUAAAUUUUUCGUUUAACUUGAAUGUGUAGAAGGGCCAUUUU [Ex3 #59] (Eterna round: R97, puzzle: Exclusion 3)",,20.7 nM,20.2 nM,
"UUUUAUAGAGGAUAUGCGUGAAUAUAUAUUCAUGGAAAUUUACAUGAGGAUCACCCAUGUAGAAGGUUGUGUUU [LRO-Excl2-20-mod 090 by JR] (Eterna round: R97, puzzle: Exclusion 2)",,13.3 nM,11.9 nM,
"UUUUGAAAGUGAGGAUAUGACAUGAGGAUCACCCAUGUAAAGGGAGUUGACUAUAUAGCAAGAUAUCAGAAGGCACAAAUGUUU [JR_ExcNG2_Sub003] (Eterna round: R96, puzzle: Exclusion NG 2)",,367 nM,645 nM,apparent KD of MS2 coat protein [1]: 341 nM
UUUUGACAUGAGGAUCACCCAUGUGAGGAUAUGAUGCGAUCGUCGAAAGACGAUAGCAUCAGAAGGCACAUAUG [Fiskers Ex 1 - 9] (puzzle: Exclusion 1),125 nM,,,
"UUUUGGCAAGCGAGAUCCGACAUGAGGAUCACCCAUGUGCGGGCCCGAAAAGGGCCCGCGGUUGCUCGUCUUGUGUG [free energy optimized] (Eterna round: R97, puzzle: Sensor, turn-off variant 1)",,15.7 nM,16.9 nM,
UUUUUACGAGGAUAUCGUUUUUUUCACAUGAGGAUCACCCAUGUUGUUUAUGUUUCGUUGCGAGAAGGCGUUUGUU [JR_E5_Sub064] (puzzle: Exclusion 5),24.3 nM,,,
UUUUUACGAGGAUAUCGUUUUUUUCACAUGAGGAUCACCCAUGUUGUUUAUGUUUCGUUUCGAGAAGGCGUUUGUU [JR_E5_Sub065] (puzzle: Exclusion 5),26.1 nM,,,
"UUUUUAGUGCUUUUUAAGUACAUGAGGAUCACCCAUGUACUUGUCUGGUGGUCCGGACAAGCUUUUUGCUCGUCUUG [Trying Again] (puzzle: Sensor v3, turn-off variant 1)",35.9 nM,,,apparent KD of MS2 coat protein [3]: 41.4 nM; apparent KD of MS2 coat protein [4]: 48.2 nM
"UUUUUAUAUGAAGGAUAUACUUAACAUGAGGAUCACCCAUGUGGUGUUGUGAGUGAGUGAGUUUAGUAGAAGGUCAAUGAUUUU [JMF's solution 10] (Eterna round: R96, puzzle: Exclusion NG 2)",,730 nM,345 nM,apparent KD of MS2 coat protein [1]: 326 nM
